In the DeepSol protein solubility set:

Assay: soluble on expression in E. coli; label from the status in PepcDB or PDB records

Q: Which “soluble on expression in E. coli” value does the source give for “KLEEEPYLKGTVNTVIYHNDTNLYTVLKVKVTETSEAIEDKAVSVTGYFPALQEEETYTFYGKIVTHPKFGLQFQAEHFKKEIPTTKEGIIQYLSSDLFEGIGKKTAEEIVKKLGDSAINKILADASVLYDVPRLSKKKADTLAGALQRHQGLEQIMISLNQFGFGPQLSMKIYQAYESETLEKIQENPYQLVKDVEGIGFGKADELGSRMGLSGNHPERVKAAILYTLETTCLSEGHTYIETEQLIIDTQSLLNQSAREGQRITEMDAANAIIALGENKDIVIEDGRCYFPSLFYAEQNVAKRVKHIASQTEYENQFPESEFLLALGELEERMDVQYAPSQKEAIQKALSSPMLLLTGGPGTGKTTVIRGIVELYGELHGVSLDPSAYKKDEAFPIVLAAPTGRAAKRMSESTGLPAVTIHRLLGWNGAEGFTHTEDQPIEGKLLIIDEASMLDIWLANHLFKAIPDHIQIIIVGDEDQLPSVGPGQVLRDLLASQVIPTVRLTDIYRQAEGSSIVELAHQMKNGLLPNNLTAPTKDRSFIRCGGSQIKEVVEKVVANALKKGYTAKDIQVLAPMYRGKAGINELNVMLQDILNPPKEKRRELKFGDVVYRTGDKILQLVNQPENNVFNGDIGEITSIFYAKENTEKEDMAVVSFDGNEMTFTKKDFNQFTHAYCCSIHKSQGSEFPIVVLPVVKGYYRMLRRNLLYTAITRAKKFLILCGEEEALEWGVKNNDATVRQTSLKNRLSVQVEEMDAELEALQKELPFSVHDANIGMEGITPFDFM” here?
A: The value was “not soluble”.

Q: Which “soluble on expression in E. coli” value does the source give for “MNSKKVLFIIFICALTVTGCDTQEQTTIDSGLTLIRATQTLDSLYANYSVSGTCLLRENYPSNVGNYTATYLASEEQKEIPNQYSYLWPYSGTFSAVNALCAATGDESYKTLLDNKVLRGLEKYLDISRSPAGYASYINTASQSDRFYDDNIWLGIDFTDAYLNTKEEKYLKKAQLIWKFIESGADDKLGGGIYWCEQKKVSKNTCSNAPASVFALKMFKAIRDSSYLIKGQELYEWTKKRLQDSTDYLYFDNISLDGKIDKSKYAYNSGQMMQAATLLYQLTGRSHFLKDAQNIAKACYNYFFINFIPEEGEPFKLLKKGDVWFTAVMLRGFIELYQTDHNKTYINSFNQNMDYAWEHVRDEKGLFDIDFSGRTHDDRKWLLTQAAMVEMYARLAVTKLEHHHHHH” here?
A: Its value is “not soluble”.

Q: With “MSLEAKEVYFEQRGDIGYIVINNAPENMITLSLLEEFSNIVENSIINSKIKGIIITGKGRHFSSGTDIGKLKQTILKTAYIKENNSLVECSEFKRYIDALSSLYSINIPVISAINGLCIGSGFEIALHSHIRICSKGSIVGSPESTFGLMPGLGGISRYVQLCGLGKALELVLSGDLLSVNEALEIGIIDKIVKKNEISDYCNRLMEYILKNEMIYSKSKINSYIKLCDEGHHHHHH” as the sequence, how does the “soluble on expression in E. coli” value read?
A: The value was “soluble”.

Q: For “MVKFTTFLCIIALLLCSTLTHASARLNPTSVYPEENSFKKLEQGEVICEGVGEEECFLIRRTLVAHTDYIYTQNHNP”, which “soluble on expression in E. coli” value is on record?
A: Its value is “soluble”.

Q: With “MSLPSERELGKELEVSRLTVRKAIQELEQKGILYKIQGKGTFVNDRKKAGEHGNKIGVISHLYKGVFMEILEGIEEGLESESYEYLLRNSQNDYKKEENIIQAMKEEGVSGFIISPVEDQKDSNVIFNLKAEGYPIVLIDRKLNYCETDCVLSDNIDGGFKATEYLIKLGHSRIAFLTYEFRKTSSVRDRIKGYRYALKLNQLELDERLLFSYNKDLSREEKNKILYNFIKENKPTAIIGVHNDVALDVVKMCRANNISIPEDISIICFDNTDIVRHLEVPLTTLVQDARKIGYDAAKLIVKKINSQEETGIMNQIYHPVKLIERNSCKSILQKNEGHHHHHH” as the sequence, how does the “soluble on expression in E. coli” value read?
A: The value was “soluble”.

Q: Which “soluble on expression in E. coli” value does the source give for “MFRGATAVNLDSKGRVAIPTRYRAEILEKNQGQMVCTVDIRQSCLLLYPLDEWEKIEQKLLALSNFDPTQRRLQRVMLGHATECEMDAQGRILLSGPLRQHAKLEKGLMLVGQLNKFEIWSDVEWHTQIAEDIEIGSSTDFAADALNDFSL” here?
A: Its value is “not soluble”.

Q: With “SFELPALPYAKDALAPHISAETIEYHYGKHHQTYVTNLNNLIKGTAFEGKSLEEIIRSSEGGVFNNAAEVWNHTFYWNCLAPNAGGEPTGKVAEAIAASFGSFADFKAQFTDAAIKNFGSGWTWLVKNSDGKLAIVSTSNAGTPLTTDATPLLTVDVWEHAYYIDYRNARPGYLEHFWALVNWEFVAKNLAA” as the sequence, how does the “soluble on expression in E. coli” value read?
A: The value was “soluble”.

Q: With “MSETELVGKDELLKAMTMCNSCPDFNLNDLRGKGDNNYQLYDWLIHNLPTAQYVLGKLVELIFSNNLTTGDEKQDEILNNFLYGQTNPEGVTNYHVLVQSIKESIVYGRSGLRFLSKDDGLINVKCNHFGVAQILNKEHYGYKELIGFVIDKKGRAITDVDLREGEIDSEEYFKKGIFVFKNNDNILLPPEKFVNLRVDTSTPKGSSVFDSDIQRVLLIASVYKRLLYDIEYDGAGRLIFWADNANSNEESSNNFLNDTESATKRRQDKYKKEVEEIMKLVKDSNSTSVLAVSNAFKKMDHLPRVTKATEFLSYLNQEGEIMAQVFGVPNVLLGLGKISGNISMEKVIDNAMLNSIIPLRENIATQISSILTNNLKVPKVYFDKYELKSQSDINDRRLKVLTVAERLKALGKEDLANKIIEEEIQL” as the sequence, how does the “soluble on expression in E. coli” value read?
A: Its value is “not soluble”.

Q: For “MGSDKIHHHHHHMIHFSINKNLFLQALNTTKRAISSKNAIPILSTVKIDVTNEGITLIGSNGQISIENFISQKNEDAGLLITSLGSILLEASFFINVVSSLPDVTLDFKEIEQNQIVLTSGKSEITLKGKDSEQYPRIQEISASTPLILETKLLKKIINETAFAASTQESRPILTGVHFVLSQHKELKTVATDSHRLSQKKLTLEKNSDDFDVVIPSRSLREFSAVFTDDIETVEIFFANNQILFRSENISFYTRLLEGNYPDTDRLIPTDFNTTITFNVVNLRQSMERARLLSSATQNGTVKLEIKDGVVSAHVHSPEVGKVNEEIDTDQVTGEDLTISFNPTYLIDSLKALNSEKVTISFISAVRPFTLVPADTDEDFMQLITPVRTN”, which “soluble on expression in E. coli” value is on record?
A: Its value is “soluble”.

Q: Which “soluble on expression in E. coli” value does the source give for “MKRLSPEVFKVPIDRIRNGYYSDIYFINYVKVLKRDSRHPRVYYQFFPRKDAVICGIDEALAILKFCTGYYKDEEKARELFEEILKLDKEMQAASVEMDVQKILELTQKKWDLRLKLNDLWVDKWDEIEVHALYDGEEAKEGEPIMTIEGDPTYFGYLETVLLGVIARATSTATAVKKVVKAARGKPVLFFSARFDHYWVQATDGYAALKAGAFGVSTDANADYWGVKSMGTMPHALIACYDGKTEDAAIAFDRHMEEDVNRIVLVDWDNDVIGTTFRVIEKFYEYVMKKPFKLGVTDPSPIIGPGKNKIWGVRFDTSGNLRDKSVVPKDESSFGVCPELVWRARQEFDKVGLRDLKIVVSGGFDEKKIDLFERLGVPADAYGVGSRLLREKVDITADIVEVNGRHCAKVGRYKIENPRLKKVGKRYWEEE” here?
A: Its value is “soluble”.

Q: With “MWVEQIEKILTPRTPLILRCRNVPIPLIVSVFVECDMFDESLPISRAMKCLFVSVLCLSVGATAADAKPKIKVVNKTYSVNATTAQDLIQQMDARGPKGFWAYTDWYVKWTGGCDLSVSITYTMPKHKNEAKLDPELRKSWQSFVTALRKHEELHGAHGIQAAQEIEKSKCADGDSVIRKWSEQDKVLDQRTDHGKKDGVVLK” as the sequence, how does the “soluble on expression in E. coli” value read?
A: The value was “not soluble”.

Q: With “MGLPAHHIDAFLDRLRTAHYSEVSLRKKRRVLCAFSGWMKHRNIDLIDLDESVTARFMKRMIDASRDRVQRARPTLRQFLAYLRAEAIVCSPTLGSQSAIAHTYRRYLDYLRQDRGLAKNSLLVYGPFIRDFLDSHSAGDGSLLPDAFDAVTIRNHLLARSKGRSAEYTRLMAVALRSFCHFLFLRGDTARDLAGSVPSVRKWRQSTVPTFLTPEQQEALIASADRSTPTGLRDYAILLLLARLGLRAGEIIEIELDDIHWRSGELVVHGKGQMVEHVPLSSEVGAAIATYLRDGRGASASRRVFLRRLAPRVGLAGPAAIGKIVCQAFARVGFRPACRGAAHLFRHGLATTMIRHGASMAEIAEVLRHRSPDSTAIYAKVAFEDLRGVARSWPTAGGAILEHHHHHH” as the sequence, how does the “soluble on expression in E. coli” value read?
A: The value was “soluble”.

Q: Which “soluble on expression in E. coli” value does the source give for “MSKPIQMERGVKYRDADKMALIPIKNMPTEQKEVLRKPEWMKIKLPADSQRIQDIKAAMRKNNLHSVCEEASCPNLAECFNHGTATFMILGAICTRRCPFCDVAHGRPNAPEAEEPKKLAQTIHDMKLKYVVITSVDRDDLRDGGAQHFADCNREIRALNPHIKIETLVPDFRGRMEVALEALKDNPPDVFNHNLETAPRLYRKVRPGANYKWSLELLRQFKEQHPHVPTKSGLMMGLGETKEEIVEVLKDLRAHGVTMLTLGQYLAPSRHHLPVERYVPPAEFDELKEVALELGFTHAACGPFVRSSYHADLQAKGLEVK” here?
A: The value was “not soluble”.

Q: Which “soluble on expression in E. coli” value does the source give for “MGSDKIHHHHHHMLTMKPEFVAQLERVLSSVEMLLPRAVKPVNWSTCYAANWRRHSFSGFLQAVRVTDTTSLHELLGVEKQKEIMISNTRQFLKGLPANNALLWGSRGTGKSSLVKALLNEYACEGLRVIQVEKEDLIYLSDIFSAVEGEPYRFILLCDDLTFEPGELTYKILKSALDGSVYSPPENVLIYVTSNRRHLLPEYESDNIGWKLVNGELQESEATEEKIALSDRFGLWVPFHVFTQDRYLEAVRLCVEREARTREVDIPWSEQLRLDAIQWSHDKKKRCGRTAYQFSKHWVGKYLLARQAA” here?
A: The value was “not soluble”.

Q: With “MNVSSSNEDTPNAPDMLSWCVHTQDNHPLPLPELKAKLLALGIDADTYALTTGLSMELEPTTLADAGYDRYQRPLLLTVDAARAWHAMRQAAVGDGIVLDAISGYRSYAYQFGILERKLAQGKTLQEILTVNAAPGFSEHHSGEALDIGMPGESPVEESFEGSSAFAWLHRHAGRFGFHLSYPRNNPHGIVYEPWHWRWRAR” as the sequence, how does the “soluble on expression in E. coli” value read?
A: The value was “not soluble”.

Q: For “SEQTEVMKPETLEDLIKTLHQIFQSDSINVEEVQNLMESYQSNPQDWMKFAKFDQYRYTRNLVDEGNGKFNLMILCWGEGHGSSIHDHTDSHCFLKLLQGQLKETLFDWPDRKLQSGMKPRGQSVLQENQCAYINDSLGLHRVENVSHTEPAVSLHLYSPPFQSCRTFDQRTGHHNTVKMTFWSKYGERTPYELSVSQENN”, which “soluble on expression in E. coli” value is on record?
A: Its value is “soluble”.

Q: For “MGSSHHHHHHSSGLVPAGSHMSDFDNITTADDVFKLAAQRTGLSEIDSDSWREGLALIVDEVNTSPVFTPFGRQRVLDDATNALGRRLQVHAYIQDHPEVLDAPVERPLIVLGMPRTGTTVISYLLDQDPARRSLLHWQCVHPIPPASTETLRTDPRCLALLDEQRKILDAVTRAKMPLPHWEDADGPTEDMFIHNQDFKGLSWDSFLPTDRYARWLFDEADMSSTYEYQKRYLQVLQSTAPGSWSLKMPSHSVHIEALLKVFPDARLIWAHRDPYKATGSLCNLWRLPQSLVMNTELLDQTEMGRLAMWQMRYHVDRPLRARERIGDERFFHMYYHEMMRDPMDVMRRIYEWADEPLTAETEARMRNWLAHHPQDRFALNAYRLDEYGLTVEALQPIFAEYLDTFDIELEGRP”, which “soluble on expression in E. coli” value is on record?
A: The value was “soluble”.

Q: For “MGSDKIHHHHHHMFKKLAADLTGFSDIGQVIHPDDFDKAAADDYVLHEDGEKIYFLIKSKTDEYCFTNLALVHLDGESAVSSKRVLYRYPYAHYPIRHVMFETAGTVDLDVEIKFEIGGKHYSIDVDKKQLEHVKDLYKALLAIAEKQYEGQKMLEFANSSLNHSVTILGGLRQGDMNVPQTFKDLSQESFDWLQGHYYKWNQKDFGSFYEKYINN”, which “soluble on expression in E. coli” value is on record?
A: Its value is “not soluble”.

Q: Which “soluble on expression in E. coli” value does the source give for “GGQIVHTETTEVVLCGDPLSGFGLQLQGGIFATETLSSPPLVCFIEPDSPAERCGLLQVGDRVLSINGIATEDGTMEEANQLLRDAALAHKVVLEVEFD” here?
A: Its value is “soluble”.

Q: For “SLHLGEQIWIYQGKKKEWLLGQIPEVNSALVSLNSDNGAIEAIVGGFSFEQSRFNRATQSLVQVGSSIKPFIYAAAMNKGLSLSTTLSDTPITINKQGQKPWEPKNADKRYEGPLRLRVALGKSKNMVAIRALQMSGVDYVADYLSRFGFNPDQFMATEALALGAASFTPLEMARAYAVFDNGGYLIEPYIIDRILDNQGNELFKANPALACLECNHIDLAYQEPTYFDGVKIHDEDQLRAEIDEINANPAASNTQTEDDQEPEIATTIKPQAPSLMTESIKNDASMRYAPRVISGELAFLMRSALNSAIYGEPGQNWHGTSRAIAKAFKRKDIGGKTGTTNNSKVTWYAGFGANIVTTVYVGFDDNRRDLGKGEAGAKTAMPAWIKYMKVALADKK”, which “soluble on expression in E. coli” value is on record?
A: The value was “not soluble”.
